Experimental data: patent US20230192839A1, “ANTIBODIES HAVING CONDITIONAL AFFINITY AND METHODS OF USE THEREOF” (PFIZER INC., priority 2017, published 2023)

Assays:
human CD33 = assay: Biacore SPR binding kinetics of anti-CD33 scFv-Fc clones with or without 10 µM MTX; conditions: CD33; 0 µM MTX; 37° C., pH 7.4; scFv-Fc
Excerpt: The first 4 rounds of panning used biotinylated CD33 antigen captured on streptavidin or neutravidin coated 96-well plates. […] 1536 clones were randomly chosen from the 4th and 5th round of panning against the CD33 antigen and their binding specificity determined by phage ELISA. Clones that specifically bound to CD33 were sequenced and all unique clones were subjected to a phage competition ELISA to assess their relative affinities to CD33 and sensitivity to MTX by measuring their binding strengths in the presence or absence of 10 µM (micromolar) MTX (i.e. in 0 or 10 µM MTX).
All binding kinetics analysis was performed on label-free Biacore surface plasmon biosensors (Biacore T200™ from GE Life Sciences) at 37° C. in 10 mM Hepes pH 7.4, 150 mM NaCl, 0.05% Tween-20 (HBST+), with or without 10 µM MTX. The Biacore data were processed in Biacore T200 Evaluation Software, and the data were double-referenced (Myszka, 1999, J Mol Recognit 12(5):279-284) and fit globally to a simple Langmuir with mass transport model to determine the equilibrium dissociation constant, KD, from the ratio of the kinetic rate constants (KD = koff/kon). In some cases the binding of antigen was very low (or not detectable) in the presence of 10 µM MTX and as a result kinetic rate constants could not be accurately determined. In these cases, a KD (or KD limit) was estimated based on the binding response at the highest analyte concentration tested or based on the typical limit of detection for a Biacore T200.

MV4-11 cells = assay: Sequential rounds of in vitro cytotoxicity assays with changing MTX concentration (reversible inhibition); format: cell-based, human; conditions: Round 0-1 no MTX, then 100 µM MTX at Round 1-2 and Round 2-3; FIGS. 9A and 9B
Procedure: The anti-CD33 clones tested in this example were: P03_A01, P07_C04, and P02_D09. In addition, a tool T cell was prepared as described in Example 4, as were untransduced T cells. Also, each of the different conditional CAR T cells described above was generated in triplicate from PBMC cells from three different human donors. The target cell line used in this assay was MV4-11; these cells were transduced to stably express GFP and firefly luciferase, as described in Example 5.
This experiment involved a series of in vitro cytotoxicity assays, in which co-cultures of T cells and MV4-11 target cells were incubated together for multiple rounds of sequential cytotoxicity assays, in which the MTX concentration changed at different rounds of the assays. In vitro cytotoxicity assays were carried out in 24-well plates by co-culturing 200,000 T cells with 200,000 MV4-11 cells, for each different T cells described above. In addition, each of the co-cultures contained either 100 µM MTX or 0 µM MTX at different times, as indicated by the schematics in FIGS. 9A and 9C. In both conditions, 1 mM leucovorin was supplemented to circumvent MTX toxicity. For each round of the assay, co-cultures were maintained in a final volume of 500 µl of RPMI 1640 medium at 37 C with 5% CO2 for 48 hours. At the end of each round, cells were spun down (250 × g, 10 minutes), supernatant was removed, and fresh media containing fresh MV4-11 cells, leucovorin, and optionally MTX were added according to the schematics shown in FIGS. 9A and 9C. Target cell killing was assessed and plotted as described in Example 4.
In comparing the different panels of FIGS. 9A-9D, note that the schematics shown in FIGS. 9A and 9C indicate the MTX concentration in the co-culture at the start of the assay for a given round, whereas the results from that assay are shown the next round number in FIGS. 9B and 9D, respectively. […]

- koff, kinetics toward antigen with 0 µM MTX (human CD33): 0.0057 s⁻¹
- kon, kinetics toward antigen with 0 µM MTX (human CD33): 50000 M⁻¹ s⁻¹
B1: P03_A01: anti-CD33 clone with conditional affinity; VH SEQ ID NO: 19, VL SEQ ID NO: 20; also as scFv in CAR (antibody, V domains shown)
VH: QVQLVESGGGLVQAGGSLRLSCAASRRSSRSWAMHWVRQAPGKGLEWVAVISYDGRLKYYADSVKGRFTISRDNAEYLVYLQMNSLRAEDTAVYYCAAETGSVGLDYWGQGTLVTVSS
VL: DIQMTQSPSSLSASVGDRVTITCRASQGISTYLNWYQQKPGKAPKLLIYGATSLESGVPSRFSGSGSGTDFTLTISSLQPEDFATYYCQQGYSQGTFGQGTKVEIK
modifications: Synthetic Antibody
notes: also as scFv in CAR
- target cell killing when MTX is added to active CAR T cells ("on" to "off") (MV4-11 cells): requires two rounds of MTX to be fully inhibited
